The record followed here is the supplement of paper PMC7877785.

± gives the uncertainty stated by the source.

This data set is described as follows: self-splicing fitness, log relative to wild type (ln ratio); higher = more splicing; Tetrahymena group I intron in knt gene, E. coli kanamycin selection, DiMSum; sequences stand for … in CUCUCU…GGAGGGAAAAGUUAUCAGGCAUGCACCUGGUAGCUAGUCUUUAAACCAAUAGAUUGCAUCGGUUUAAAAGGCAAGACCGUCAAAUUGCGGGAAAGGGGUCAACAGCCGUUCAGUACCAAGUCUCAGGGGAAACUUUGAGAUGGCCUUGCAAAGGGUAUGGUAAUAAGCUGACGGACAUGGUCCUAACCACGCAGCCAAGUCCUAAGUCAACAGAUCUUCUGUUGAUAUGGAUGCAGUUCACAGACUAAAUGUCGGUCGGGGAAGAUGUAUUCUUCUCAUAAGAUAUAGUCGGACCUCUCCUUAAUGGGAGCUAGCGGAUGAAGUGAUGCAACACUGGAGCCGCUGGGAACUAAUUUGUAUGCGAAAGUAUAUUGAUUAGUUUUGGAGUACUCGUGGUCG
The procedure, abridged:
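Colonies from six replicate transformations of E. coli BL21(DE3) were pooled and amplicon-sequenced on an Illumina HiSeq 2500. The library placed an intron with all eight P1ex-region nucleotides randomised inside the knt kanamycin-resistance gene on pET-22b(+), and cells grew overnight at 37°C or 30°C on LB agar with or without 25 μg/mL kanamycin (plus 100 μg/mL carbenicillin, 50 μM IPTG, 0.2% rhamnose). Fitness is the DiMSum error-weighted combination of wild-type-normalised replicate fold changes, kanamycin versus none.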

Consider GGCAAGCAAUAUUACGGGAG, for which the “self-splicing fitness (ln)” value is -2.47 ± 0.15 (30 °C) and -1.44 ± 0.18 (37 °C).
CAUGAGCAAUAUUACGCUAG: the “self-splicing fitness (ln)” value is, setting by setting: (30 °C) -3.07 ± 0.21; (37 °C) -2.82 ± 0.23.
Consider UGCUAGCAAUAUUACGCCAG, for which, for the setting “37 °C”, the “self-splicing fitness (ln)” value was -2.17 ± 0.39.
On to AUUGAGCAAUAUUACGUGCA, for which the “self-splicing fitness (ln)” value was -2.91 ± 0.15 (30 °C) and -1.85 ± 0.14 (37 °C).
For ACGCAGCAAUAUUACGUGUU the same measures were -4.19 ± 0.1 and -2.85 ± 0.14.
For GCACAGCAAUAUUACGAGAG, in that order: -2.96 ± 0.14 and -1.33 ± 0.11.
For UAUGAGCAAUAUUACGGGUA, the “self-splicing fitness (ln)” value (30 °C) is -1.86 ± 0.14 and the “self-splicing fitness (ln)” value (37 °C) is -2.05 ± 0.14.
With ACUGAGCAAUAUUACGAUAU, the “self-splicing fitness (ln)” value is, setting by setting: (30 °C) -4.44 ± 0.36; (37 °C) -2.8 ± 0.2.
For GUAUAGCAAUAUUACGGCGU, in that order: -0.696 ± 0.13 and 0.267 ± 0.19.
On to AGCCAGCAAUAUUACGGCGC, for which the “self-splicing fitness (ln)” value runs as follows: (30 °C) -1.51 ± 0.13; (37 °C) -0.844 ± 0.16.
Turning to UGCAAGCAAUAUUACGGAAC, the “self-splicing fitness (ln)” value (37 °C) is -0.851 ± 0.25.
CUAAAGCAAUAUUACGGGUC: the “self-splicing fitness (ln)” value is, setting by setting: (30 °C) -3.75 ± 0.21; (37 °C) -3.33 ± 0.37.
For ACCAAGCAAUAUUACGUGCG, in that order: -1.03 ± 0.052 and -0.972 ± 0.069.
In the case of UUGGAGCAAUAUUACGGGUC, where the note is “30 °C”, the “self-splicing fitness (ln)” value is -3.74 ± 0.34.
Take CAUAAGCAAUAUUACGCUAG: the “self-splicing fitness (ln)” value reads like this: (30 °C) -3.34 ± 0.16; (37 °C) -2.4 ± 0.15.
As to AGACAGCAAUAUUACGAAUU, the “self-splicing fitness (ln)” value runs as follows: (30 °C) -2.74 ± 0.1; (37 °C) -1.27 ± 0.11.
For UGAUAGCAAUAUUACGCCCA, in that order: 0.955 ± 0.13 and -0.0259 ± 0.17.
With AGUCAGCAAUAUUACGACCC, the “self-splicing fitness (ln)” value is, setting by setting: (30 °C) -0.401 ± 0.19; (37 °C) -0.72 ± 0.29.
For GCACAGCAAUAUUACGUUCG the same measures were -0.717 ± 0.065 and -0.441 ± 0.085.
In the case of AGCUAGCAAUAUUACGCGCC, the “self-splicing fitness (ln)” value was -2.25 ± 0.23 (30 °C) and -2.04 ± 0.29 (37 °C).
For UUUUAGCAAUAUUACGGAAG, in that order: -1.3 ± 0.17 and -0.731 ± 0.19.
For AGCUAGCAAUAUUACGUGGG, in that order: -4.49 ± 0.2 and -2.72 ± 0.15.
GAGAAGCAAUAUUACGUGUC: the “self-splicing fitness (ln)” value is -3.95 ± 0.27 (30 °C) and -2.1 ± 0.33 (37 °C).
For GUCAAGCAAUAUUACGAUAU, in that order: -1.28 ± 0.07 and -0.525 ± 0.078.
For ACGAAGCAAUAUUACGUAUC, in that order: -4.38 ± 0.27 and -2.66 ± 0.22.
Consider ACGCAGCAAUAUUACGCUGG, for which the “self-splicing fitness (ln)” value (30 °C) was -2.25 ± 0.12 and the “self-splicing fitness (ln)” value (37 °C) is -1.48 ± 0.14.
For the sequence AAUGAGCAAUAUUACGAAUG, the “self-splicing fitness (ln)” value (30 °C) is -3.34 ± 0.36.
Consider AUAGAGCAAUAUUACGAUAU, for which the “self-splicing fitness (ln)” value was -0.196 ± 0.065 (30 °C) and 1.04 ± 0.082 (37 °C).
For the sequence AACCAGCAAUAUUACGGGUG, the “self-splicing fitness (ln)” value (30 °C) is -1.14 ± 0.046 and the “self-splicing fitness (ln)” value (37 °C) is -0.409 ± 0.064.
With CCCUAGCAAUAUUACGGCGU, the “self-splicing fitness (ln)” value was -2.1 ± 0.15 (30 °C) and -2.35 ± 0.17 (37 °C).
For AUGUAGCAAUAUUACGCUCU the same measures were -1.95 ± 0.13 and -0.655 ± 0.17.
For AGGUAGCAAUAUUACGAAGU the same measures were -3.22 ± 0.026 and -1.56 ± 0.037.
For GAAUAGCAAUAUUACGUAAG the same measures were -2.32 ± 0.14 and -0.886 ± 0.18.
As to GCACAGCAAUAUUACGACUU, the “self-splicing fitness (ln)” value is -0.119 ± 0.076 (30 °C) and 0.33 ± 0.088 (37 °C).
